This data set can be described thus: yeast display, Sf9 membrane polyspecificity reagent, FACS + sequencing; frameworks hold sequencing errors. In short, it runs like this: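 In a synthetic yeast display library (Saccharomyces cerevisiae BJ5465), nanobody expression was induced with galactose for 36–48 hours. FACS gates were set low and high (top ~1%) using anti-HA fluorescence for expression and streptavidin fluorescence for binding of the Sf9 membrane reagent. Each polyreactivity label is drawn from the gate of origin.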
In the case of “QVQLVESGGGLVQARGSLRLSCAASGFTFPSYAMGWYRQAPGKERELVARITWIGGRTYYADSVKGRFTISRDNAKNTVYLQMNSLKPEDSAVYYCAARIGGGPVKYDYWGQGTQVTVSS”, the “polyreactivity (PSR sort gate)” value is given as “high polyreactivity”. The entry for “QVQLVESGGGLVQARGSLRLSCAASGFTFSDYVMGWYRQAPGKERELVAVITSGSSTYYADSVKGRFTISRDNAKNTVYLQMNSLKPEDTAVYYCNADPDDGYFSDFDYWGQGTQVTVSS” is “low polyreactivity”; for “QVQLVESGGGLVQARGSLRLSCAASGFTFSRYAMGWYRQAPGKERELVAAITRSGGSTYYADSVKGRFTISRDNAKNTVYLQMNSLKPEDTAVYYCAKRAASGFRWDSGYWGQGTQVTVSS” it is “high polyreactivity”. With “QVQLVESGGGLVQARGSLRLSCAASGGIFDTYVMGWYRQAPGKERELVAAISCSGSTTYADSVKGRFTISRDNAKYTVYLQMNSLKPEDTAVYYCNADYSTIWRYDYWGQGTQVTVSS”, the “polyreactivity (PSR sort gate)” value is reported as “low polyreactivity”.

For the sequence “QVQLVESGGGLVQARGSLRLSCAASGGTFESYAMGWYRQAPGKERELVAAITYSGGSTYYADSVKGRFTISRDNAKNTVYLQMNSLKPEDTAVYYCAARPRFITYKRYYWGQGTQVTVSS”, the “polyreactivity (PSR sort gate)” value is on record as “high polyreactivity”. The same measure for “QVQLVESGGGLVQARGSLRLSCAASGGTFLSYAMGWYRQAPGKERELVAGISSGGSTNYADSVKGRFTISRDNAKNTVYLQMNSLKPEDTAVDYCAADSFPSEFDYWGQGTQVTVSS”: “low polyreactivity”. Consider “QVQLVESGGGLVQARGSLRLSCAASGIIFKGYAMGWYRQAPGKERELVAGITRYGGGTYYADSVKGRFTISRDNAMNTVYLQMNRLKPEDTAVYYCAAVRIARAVQDYDYWGQGTQVTVSS”, for which the “polyreactivity (PSR sort gate)” value is listed as “high polyreactivity”.

Regarding “QVQLVESGGGLVQARGSLRLSCAASGITFRVNAMGWYRPAPGKERELVAAISRGGGSTYYADSVKGRFTISRDNAKNTVYLQMNSLKPEDTAVYFCAASYGAPYGYKRYYYWGQGTQVTVSS”, the “polyreactivity (PSR sort gate)” value is given as “high polyreactivity”. The same measure for “QVQLVESGGGLVQARGSLRLSCAASGLIFKYNVMGWYRQAPGTERELVAAITWGGTRTYYADSVKGRFTISRDNAKNTVYLQMNSLKPEDTAVYYCARSHWTWLLIYIGAQDYDYWGQGTQVTVSS”: “low polyreactivity”.

Consider “QVQLVESGGGLVQARGSLRLSCAASGNTIIRYAMGWYRQAPGKERELVAAISYAGGRTYYADSVKGRFTISRDNAKNTVYLQMNSLTPEDTAVYYCNAASRYGGDYWGQGTQVTVSS”, for which the “polyreactivity (PSR sort gate)” value is listed as “high polyreactivity”.

Regarding “QVQLVESGGGLVQARGSLRLSCAASGRIFGNNAKGWYRQAPGKARELVAAIRRGGSTYYADSVKGRFTISRDNAKITVYLQMNSLKPEETAVYYCAADSSRKHFYWGQGTQVTVSS”, the “polyreactivity (PSR sort gate)” value is listed as “high polyreactivity”.

Turning to “QVQLVESGGGLVQARGSLRLSCAASGRIFSYNDMGWYRQAPGTERELVAVISIRGGGTYYADSVKGRFTISRDNAKNTVYFQMNSLKPEDTAVYYCNAEYVTFGEEYGYWGQGTQVTVSS”, the “polyreactivity (PSR sort gate)” value is on record as “low polyreactivity”.

As for “QVQLVESGGGLVQARGSLRLSCAASGRTFRYYTMGWYRQAPGKEREFVAAITFRGGSTYYADSVKGRFTISRDNAKNTVYLQMNSLKPEDTAVYYCAAVGRYSRYPYSDTYGYWGQGTQVTVSS”, the “polyreactivity (PSR sort gate)” value is reported as “high polyreactivity”. For the sequence “QVQLVESGGGLVQARGSLRLSCAASGRTLTYNAMGWYRPAPGKERELVAVISSRGDTTYYADSVKGRFTISRDNAKNTVYLQRNSLKPEDTAVYFCNSALSGRRSYYYWGQGTQVTVSS”, the “polyreactivity (PSR sort gate)” value was “low polyreactivity”. The same measure for “QVQLVESGGGLVQARGSLRLSCAASGSIFRYNAMGWYRQAPGKERELVAAITSAGGSTYYADSVKGRFTISRDKAKNTVYLQMNSLKPEDTAVYYCAVRYYVYFPWPRVTERMYYWGQGTQVTVSS”: “high polyreactivity”. The entry for “QVQLVESGGGLVQARGSLRLSCAASGSIFYNYGMGWYRQAPGKERELVAAIRASGDSTYYADSVKGRFTISRDNAKNTVYLQMNSLKPEDTAVYYCAARPNQSYYGLYYYWGQGTQVTVSS” is “low polyreactivity”; for “QVQLVESGGGLVQARGSLRLSCAASGSIIDYYAMGWYRQAPGKERELVAAINISGGDTYYADSVKGRFTISRDNAKNTVYLQMNSLKPEDTAVYYCNADRFYIDYSNTYDSIRDYWGQGTQVSVSS” it is “low polyreactivity”; for “QVQLVESGGGLVQARGSLRLSCAASGSTFPYYTMGWYRQAHWKERELVAAITTRGGGTYYADSVKGRFTISRDNAKNTVYLKMNSLKPEDTAVYYCAAKTIYDTRGIRHYYWGKGTQVTVSS” it is “high polyreactivity”. Turning to “QVQLVESGGGLVQARGSLRLSCAASGSTFTRYGMGWYRQAPGKERELVAAITTSGSSTYYADSVKGRFTISRDNAKNTVYLQMNSLKPEDTAVYYCAADWSSWGFDYWGQGTQVTLSS”, the “polyreactivity (PSR sort gate)” value was “low polyreactivity”. The entry for “QVQLVESGGGLVQARGSLRLSCAASGYIFFGNAMGWYRQAPGKERELVAAIRWRGTSTYYADSVKGRFTISRDNAKNTVYLQMKSLKPEDTAVYYCAADVVSSNFYGTFLYDYDYWGQGTQVTVSS” is “low polyreactivity”. The entry for “QVQLVESGGGLVQARGSLRLSCAASLLTFGKNDMGWYRQAPGKEREFVAAITSRGGYTYYADSVKGRFTISRDNAKNTVYSQMNSLKPEDTAVYYCNREYKRPSQRTEHSYWGQGTQVTVSS” is “low polyreactivity”; for “QVQLVESGGGLVQARGSLRLSCASSGSIFNYYDMGWYRQAPGKERELVAAIDTSGGSTYFADSVKGRFTISRDNAKNTVYLQMNRLKPEDTAVYYCAAEWPYYDKIYDYWGQGTQVTVSS” it is “low polyreactivity”.

Regarding “QVQLVESGGGLVQARGSLRLSCASSGSIFRFNGMGWYRQPPGKERELVATISSGGRTNYADSVKGRFTISRDNAKNTVYLQMNSLKPEDTAVYYCAARSPLRTSYYYPYYYWGQGTQVTVSS”, the “polyreactivity (PSR sort gate)” value is “high polyreactivity”.

With “QVQLVESGGGLVQARGSLRLSFAASGYTLRPNGMGWYRQAPGKERELVAAISSGGSTYYADSVKGRFTISRDNAKNTVYLQLNSLKPEDTAVSYCAAEYWYDYWVQGTQVTVSS”, the “polyreactivity (PSR sort gate)” value is given as “low polyreactivity”. The same measure for “QVQLVESGGGLVQARGTRRLSSAACGRTFGSYAMGWYRQAPGKERELVAAISRSDGSTYYADSVKGRFSISRDNEKNTVYFQMNSLKPEDTAVYYCAAKRWYVSYDYDYWGQGTQVTVSS”: “high polyreactivity”; for “QVQLVESGGGLVQARRRLRLSCAASGRTFRENFMGWYRQEPGKEREFVAISSSGASTYYADSVKGRFTISRDNAKNTVYLQMNSLKPEDTAVYYCAAKLYGAPYSKYYYWGHGTQVTVSS”: “high polyreactivity”. Consider “QVQLVESGGGLVQASGSLRLSCAASGLTFYLNAMGWYRPEHGKERELVAGISYTGGSTYYADSVKGRFTISRDNAKNTVYLQMNSLKPEDTAVYSCARDNFYYGVWDYGYWGQGTQVTVSS”, for which the “polyreactivity (PSR sort gate)” value is reported as “low polyreactivity”. The same measure for “QVQLVESGGGLVQAVGRLRLSCAASGLTFQYYAMGWYRQAPGKERELDAAISRSGGRSYYADSVKGRFTISRDNAKYTVYLQMISLKPEDSAVSYCNAVRRFASPTRHYYWGQGTQVTVSS”: “high polyreactivity”. The entry for “QVQLVESGGGLVQAVGSHRLSCAASGSIFFWYTMGWYRQPPGKERELVATITGSGSSTTYADSVKGRFTISRDNAKNTVYLQMNSLKPVDTAVYYCAAADIIDHSFPYDYWGQGTQVTVSS” is “low polyreactivity”. The entry for “QVQLVESGGGLVQAVGSLRLICAPSGSIFGTNAMGWYRQAPGKERELVATISYGDGSTYYADSVKGRFTISRDNAKNTVYLQMNSLKPEDTAVYYCNTGVYSSGGPLDYWGQGTQVTVSS” is “low polyreactivity”.

For the sequence “QVQLVESGGGLVQAVGSLRLSCAASGFTFRGYDMRSYRQAPGKQRELVAGITWGDDSTYYADSVKRRFTISRDKAKNTGYLQMNILKPEDTAVYYCAAEYVFHDVLWWIYGYWRQGTQVTVSS”, the “polyreactivity (PSR sort gate)” value is listed as “high polyreactivity”. The entry for “QVQLVESGGGLVQAVGSLRLSCAASGRIFVYNAMGWYRQAPGKERELVASITSSGGSTYYADSVKGRFTISRDNAKNTFYLQMNSLKPEDTAVYYCAADVQPDTRSTPEMDYWGQGTQVTVSS” is “low polyreactivity”; for “QVQLVESGGGLVQAVGSLRLSCAASGRTFDEYAMGWYRQAPGKERELVAAISTRGGSTYYADSVKGRFTISRDNAKNTVYLQMNSLKPEDTAVYYCAADYTKSSSPWPGYYWGQGTQVTVSS” it is “high polyreactivity”. As for “QVQLVESGGGLVQAVGSLRLSCAASGRTLSRNAKGWYRQAPGKEREFVAAISSRGTSTYYADSVKGRFTISRDNAKNSVYLQMNSLKPEDTAVYYCATTLGGNYGYDYWGQGTQVTVSS”, the “polyreactivity (PSR sort gate)” value was “high polyreactivity”. Take “QVQLVESGGGLVQAVGSLRLSCAASGSIFVKYAMGWYRQAPGKERELVAALSRSGGSTYYADSVKGRFTISRDNAKNTVYLQMNSLKPEDTEVYYCAATYYKGMNYWGQGTQVTVSS”: the “polyreactivity (PSR sort gate)” value is given as “high polyreactivity”. The entry for “QVQLVESGGGLVQAVGSLRLSCAASGSTFGEYAMGWYRQAPGKERELVAVITSDDNTYYADSVKGRFTISRDNAKNTVYLQMNSLKPEDTAVYYCATDDRRRFKYWGQGTQVTVSS” is “high polyreactivity”; for “QVQLVESGGGLVQAVGSLRLSCAASGSTFGRNAMGWYRQAPGKERELVAAISWSASRTYYADSVKGRFTISRDNAKNTVYLQMNSLKPEDTAVYFCAAEYDVGYFGYEYWGQGTQVTVSS” it is “high polyreactivity”; for “QVQLVESGGGLVQAVGSLRLSCAASGSTFKRNAMGWYRQAPGKERELVAAITSGGSTYYADSVKGRFTISRDNAKNTVYLQMNSLKPEVTAVYYCNKVPYLKLKMDYWGQGTQVTVSS” it is “high polyreactivity”. The entry for “QVQLVESGGGLVQAVGSLRLSCAASGSTFSRYAMGWYRQAPGKERELVAAISWGGNTYYADSVKGRFTISRDNAKNTVYLQMNSLKPVDTAVYYCNRYSKLYNTMDYWGQGTQVTVSS” is “high polyreactivity”; for “QVQLVESGGGLVQAVRSLRLSCAASGFTFNGNAMGWYRQAPGKDRELVAAISYSGGSTYYADSVKGRFTISRDNAKNTVYLQMNSLKPEDTAVYYCAADRTAYSVRAYTKDHSGHDYWGQGTQVTVSS” it is “low polyreactivity”; for “QVQLVESGGGLVQEGASLRLSCAASGSIVGYYAMGWYRQAHGKERELVAAITRYGGRTYYADSVKGRFTISRDNGKNTVYLQMNSLKPEDTAVYYCNAANSRYAYYYWGQGTQVTVSS” it is “high polyreactivity”.

The record behind these values is the nanobody polyreactivity screen of Harvey et al. (2022).
